Laboratory results published in paper PMC11055865.

Target: MCM8-9 complex (FLAG-tagged MCM8 and MBP-tagged MCM9), wild type (human) (UniProt Q9UJA3)
Assay: mass photometry; MCM8-9 preincubated with HROB (both 1 μM) 10 min at room temperature in 25 mM Tris-HCl pH 7.5, 3 mM EDTA, 50 mM NaCl, then rapidly diluted to 200 nM; complex largely fell apart upon dilution

Chain of MCM8-9 complex (FLAG-tagged MCM8 and MBP-tagged MCM9), wild type (human) (Q9UJA3 whole entry, chain 1 of 2): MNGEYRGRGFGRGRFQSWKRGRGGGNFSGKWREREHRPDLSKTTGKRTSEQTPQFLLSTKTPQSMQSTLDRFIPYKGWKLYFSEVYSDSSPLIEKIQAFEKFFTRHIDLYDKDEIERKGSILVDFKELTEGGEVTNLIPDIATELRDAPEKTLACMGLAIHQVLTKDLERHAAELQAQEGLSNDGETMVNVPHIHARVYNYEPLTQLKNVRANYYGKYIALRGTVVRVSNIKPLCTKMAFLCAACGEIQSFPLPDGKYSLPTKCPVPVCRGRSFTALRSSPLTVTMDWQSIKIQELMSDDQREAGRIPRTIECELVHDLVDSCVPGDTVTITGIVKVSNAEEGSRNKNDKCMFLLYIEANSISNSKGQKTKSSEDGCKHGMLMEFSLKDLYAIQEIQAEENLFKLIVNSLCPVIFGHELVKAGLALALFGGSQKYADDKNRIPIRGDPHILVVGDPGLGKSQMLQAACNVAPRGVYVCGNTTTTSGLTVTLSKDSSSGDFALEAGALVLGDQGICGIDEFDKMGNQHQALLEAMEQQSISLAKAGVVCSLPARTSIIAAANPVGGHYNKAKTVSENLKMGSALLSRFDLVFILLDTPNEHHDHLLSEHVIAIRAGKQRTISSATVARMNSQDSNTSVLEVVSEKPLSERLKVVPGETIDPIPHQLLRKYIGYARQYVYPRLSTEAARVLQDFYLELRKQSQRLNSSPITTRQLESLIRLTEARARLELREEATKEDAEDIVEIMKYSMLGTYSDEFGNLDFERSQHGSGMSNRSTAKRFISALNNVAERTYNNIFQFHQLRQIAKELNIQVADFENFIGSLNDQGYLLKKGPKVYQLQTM
Chain of MCM8-9 complex (FLAG-tagged MCM8 and MBP-tagged MCM9), wild type (human) (Q9NXL9 whole entry, chain 2 of 2, further chain): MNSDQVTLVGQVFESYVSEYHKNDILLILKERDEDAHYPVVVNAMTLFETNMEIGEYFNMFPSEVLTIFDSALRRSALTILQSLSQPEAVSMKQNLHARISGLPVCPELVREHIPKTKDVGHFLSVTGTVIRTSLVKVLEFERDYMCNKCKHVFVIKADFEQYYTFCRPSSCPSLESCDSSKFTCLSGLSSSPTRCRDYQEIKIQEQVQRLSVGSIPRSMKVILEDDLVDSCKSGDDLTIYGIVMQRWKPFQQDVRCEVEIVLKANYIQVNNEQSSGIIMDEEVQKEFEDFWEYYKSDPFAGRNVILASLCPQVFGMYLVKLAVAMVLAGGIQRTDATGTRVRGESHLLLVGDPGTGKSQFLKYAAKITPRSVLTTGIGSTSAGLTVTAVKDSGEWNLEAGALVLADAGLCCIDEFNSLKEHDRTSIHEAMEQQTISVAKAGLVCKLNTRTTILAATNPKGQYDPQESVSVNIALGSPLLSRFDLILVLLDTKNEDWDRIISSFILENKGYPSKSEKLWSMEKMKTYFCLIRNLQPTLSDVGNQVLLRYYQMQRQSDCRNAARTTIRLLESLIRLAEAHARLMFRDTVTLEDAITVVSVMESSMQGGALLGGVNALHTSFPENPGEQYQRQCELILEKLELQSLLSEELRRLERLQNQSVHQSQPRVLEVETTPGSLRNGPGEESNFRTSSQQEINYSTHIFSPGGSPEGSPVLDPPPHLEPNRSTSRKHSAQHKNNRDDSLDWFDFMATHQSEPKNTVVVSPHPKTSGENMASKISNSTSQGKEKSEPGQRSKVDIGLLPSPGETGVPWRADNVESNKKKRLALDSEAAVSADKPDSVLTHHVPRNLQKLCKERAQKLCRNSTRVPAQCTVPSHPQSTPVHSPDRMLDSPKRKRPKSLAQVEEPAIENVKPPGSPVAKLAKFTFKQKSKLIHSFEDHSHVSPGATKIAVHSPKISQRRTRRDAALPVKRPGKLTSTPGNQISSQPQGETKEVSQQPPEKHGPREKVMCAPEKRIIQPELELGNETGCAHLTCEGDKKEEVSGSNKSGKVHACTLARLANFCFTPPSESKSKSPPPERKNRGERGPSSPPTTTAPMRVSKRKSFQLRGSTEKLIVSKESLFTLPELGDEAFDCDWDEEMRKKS

Question: Which stoichiometry N (HROB per MCM8-9 heterodimer) does the source give for “HROB-FLAG (wild type HROB, homologous recombination factor with OB-fold) (from UniProt Q8N3J3-4 1-646) (natural protein)” here?
Answer: 1
